Measured values published in PMC10767699, “Custom Design of a Humidifier Chamber for InMeso Crystallization” (Crystal Growth & Design, 2023).

Biological target: the molecule itself
Assay: crystal structure; in meso (monoolein mesophase) crystallization of apo GltTk, 21 °C; space groups H3_(2) and P6_(3)22; one protomer in the asymmetric unit, trimer generated by crystal symmetry

B1: transmembrane aspartate transporter GltTk from Thermococcus kodakarensis (natural protein)
chain: MGKSLLRRYLDYPVLWKILWGLVLGAVFGLIAGHFGYAGAVKTYIKPFGDLFVRLLKMLVMPIVLASLVVGAASISPARLGRVGVKIVVYYLATSAMAVFFGLIVGRLFNVGANVNLGSGTGKAIEAQPPSLVQTLLNIVPTNPFASLAKGEVLPVIFFAIILGIAITYLMNRNEERVRKSAETLLRVFDGLAEAMYLIVGGVMQYAPIGVFALIAYVMAEQGVRVVGPLAKVVGAVYTGLFLQIVITYFILLKVFGIDPIKFIRKAKDAMITAFVTRSSSGTLPVTMRVAEEEMGVDKGIFSFTLPLGATINMDGTALYQGVTVLFVANAIGHPLTLGQQLVVVLTAVLASIGTAGVPGAGAIMLAMVLQSVGLDLTPGSPVALAYAMILGIDAILDMGRTMVNVTGDLAGTVIVAKTEKELDESKWISHHHHHHHH
  stoichiometry N: 3
